Tests used:
PDGFRα-V242K [1] = molecular target: PDGFRα-V242K (UniProt P16234)
PDGFRα-V242K [2] = molecular target: PDGFRα-V242K (UniProt P16234); remark: listed apart in the source
[3] = molecular target: HCMV gH/gL/gO complex (strain TR; gO allele gO1b) (human cytomegalovirus (HCMV) strain TR)

Substance	rate of gH/gL/gO-PDGFRα-dependent cell–cell fusion, as percent of parental gO1b (% of parental gO1b) (PDGFRα-V242K [1])	further results
HCMV gH/gL/gO complex with gO allele gO1c	107	–
HCMV gH/gL/gO complex with gO allele gO2a	112	–
HCMV gH/gL/gO complex (strain TR; gO allele gO1b)	–	rate of gB-mediated cell–cell fusion (split luciferase, live cells); ARPE19 target cells with PDGFRα against those without (PDGFRα-V242K [2]): > 100 fold
HCMV gH/gL/gO complex with gO allele gO1a	83	–
soluble PDGFRα-FC (from UniProt P16234 24-528) (Fc fusion)	–	inhibition of the rate of gH/gL/gO-PDGFRα-dependent cell–cell fusion (pair that is blocked: m1 and m2) [3]: 2.5 fold

— PMC12090739
